Experimental data from patent US20230250154A1 (CYTONICS, published 2023).

Columns and labels:
Assay in all cases: cell-based or functional assay
Elastase = target: Elastase
MMP3 = MMP3 (human, UniProt P08254 100-477, limits assumed)
MMP8 = MMP8 (human, UniProt P22894 101-467, limits assumed)
MMP9 = MMP9 (human, UniProt P14780 107-707, limits assumed)
ADAMTS5 = target: T1, ADAMTS5 (human, UniProt Q9UNA0 262-622, limits assumed)
T1 sequence (looked up): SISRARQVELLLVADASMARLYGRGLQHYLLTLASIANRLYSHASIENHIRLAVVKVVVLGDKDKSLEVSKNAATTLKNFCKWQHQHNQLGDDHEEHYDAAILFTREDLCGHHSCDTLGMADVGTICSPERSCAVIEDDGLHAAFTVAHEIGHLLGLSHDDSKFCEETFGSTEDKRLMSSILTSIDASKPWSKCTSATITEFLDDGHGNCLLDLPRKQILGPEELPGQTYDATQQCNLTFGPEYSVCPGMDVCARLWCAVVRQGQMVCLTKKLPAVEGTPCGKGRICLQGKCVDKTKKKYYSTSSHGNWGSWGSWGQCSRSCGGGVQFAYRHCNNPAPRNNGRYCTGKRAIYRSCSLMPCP

MMP1 = target: T2, MMP1 (human, UniProt P03956 100-469, limits assumed)
T2 sequence (looked up): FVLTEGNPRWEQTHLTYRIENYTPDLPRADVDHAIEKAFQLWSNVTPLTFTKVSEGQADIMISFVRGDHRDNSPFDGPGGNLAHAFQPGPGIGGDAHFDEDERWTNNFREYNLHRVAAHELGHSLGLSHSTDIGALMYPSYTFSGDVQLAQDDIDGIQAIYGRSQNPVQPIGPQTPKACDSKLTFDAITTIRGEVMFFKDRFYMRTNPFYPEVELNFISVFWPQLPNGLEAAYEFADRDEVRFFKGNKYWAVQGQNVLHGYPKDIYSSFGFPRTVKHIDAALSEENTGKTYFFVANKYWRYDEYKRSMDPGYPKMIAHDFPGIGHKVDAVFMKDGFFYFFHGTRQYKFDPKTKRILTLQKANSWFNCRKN

ADAMTS4 = target: T3, ADAMTS4 (human, UniProt O75173 213-685, limits assumed)
T3 sequence (looked up): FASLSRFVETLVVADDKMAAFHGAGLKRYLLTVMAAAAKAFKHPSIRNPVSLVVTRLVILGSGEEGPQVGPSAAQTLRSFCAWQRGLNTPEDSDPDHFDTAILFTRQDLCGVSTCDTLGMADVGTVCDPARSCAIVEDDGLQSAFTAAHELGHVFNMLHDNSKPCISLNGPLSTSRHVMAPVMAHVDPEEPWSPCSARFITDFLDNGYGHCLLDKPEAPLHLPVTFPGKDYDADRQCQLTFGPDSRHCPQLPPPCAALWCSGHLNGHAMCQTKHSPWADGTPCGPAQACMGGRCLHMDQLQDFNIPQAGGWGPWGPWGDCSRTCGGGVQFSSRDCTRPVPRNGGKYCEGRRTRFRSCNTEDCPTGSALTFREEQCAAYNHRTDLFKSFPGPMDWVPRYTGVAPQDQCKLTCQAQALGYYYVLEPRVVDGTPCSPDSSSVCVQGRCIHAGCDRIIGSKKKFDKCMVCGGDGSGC

MMP2 = target: T4, MMP2 (human, UniProt P08253 110-660, limits assumed)
T4 sequence (looked up): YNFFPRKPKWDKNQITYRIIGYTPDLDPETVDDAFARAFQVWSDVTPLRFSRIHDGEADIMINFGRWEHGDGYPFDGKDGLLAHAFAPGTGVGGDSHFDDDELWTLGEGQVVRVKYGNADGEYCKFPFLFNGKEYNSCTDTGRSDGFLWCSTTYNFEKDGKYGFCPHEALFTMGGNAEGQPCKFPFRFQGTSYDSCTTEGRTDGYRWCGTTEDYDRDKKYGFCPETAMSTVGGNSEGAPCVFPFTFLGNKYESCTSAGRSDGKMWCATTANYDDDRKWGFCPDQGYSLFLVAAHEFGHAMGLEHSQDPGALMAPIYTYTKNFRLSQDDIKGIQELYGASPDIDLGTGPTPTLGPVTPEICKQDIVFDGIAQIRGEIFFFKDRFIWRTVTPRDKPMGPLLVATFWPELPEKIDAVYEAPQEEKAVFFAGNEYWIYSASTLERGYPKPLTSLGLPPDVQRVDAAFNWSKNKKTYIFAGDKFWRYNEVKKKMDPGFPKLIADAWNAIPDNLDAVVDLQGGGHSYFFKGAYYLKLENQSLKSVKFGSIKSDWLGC

MMP7 = target: T5, MMP7 (UniProt P09237 95-267, limits assumed)
T5 sequence (looked up): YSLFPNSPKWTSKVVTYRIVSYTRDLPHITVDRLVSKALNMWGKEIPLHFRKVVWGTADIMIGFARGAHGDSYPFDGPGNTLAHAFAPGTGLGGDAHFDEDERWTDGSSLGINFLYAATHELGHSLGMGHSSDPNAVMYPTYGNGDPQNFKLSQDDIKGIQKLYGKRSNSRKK

Cathepsin G = target: T6, Cathepsin G (UniProt P08311 21-244)
T6 sequence (looked up): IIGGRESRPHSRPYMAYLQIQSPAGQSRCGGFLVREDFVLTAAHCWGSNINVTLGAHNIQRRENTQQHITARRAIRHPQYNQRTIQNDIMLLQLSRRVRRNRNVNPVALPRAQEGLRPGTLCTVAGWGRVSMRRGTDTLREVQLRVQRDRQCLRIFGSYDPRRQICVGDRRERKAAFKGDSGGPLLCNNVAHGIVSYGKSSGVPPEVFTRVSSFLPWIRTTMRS

MMP13 = MMP13 (human, UniProt P45452 104-471, limits assumed)

Chain of MMP3 (P08254 100-477 limits assumed): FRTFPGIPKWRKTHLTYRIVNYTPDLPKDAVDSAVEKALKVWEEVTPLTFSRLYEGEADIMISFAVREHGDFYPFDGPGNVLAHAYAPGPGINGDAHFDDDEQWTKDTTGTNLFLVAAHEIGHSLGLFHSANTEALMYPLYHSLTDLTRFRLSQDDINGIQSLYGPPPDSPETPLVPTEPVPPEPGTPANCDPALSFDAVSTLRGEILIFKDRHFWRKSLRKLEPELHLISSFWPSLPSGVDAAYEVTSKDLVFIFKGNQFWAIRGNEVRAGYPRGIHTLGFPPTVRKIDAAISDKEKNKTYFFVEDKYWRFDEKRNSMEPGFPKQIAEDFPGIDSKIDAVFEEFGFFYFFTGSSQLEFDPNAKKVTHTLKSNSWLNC
Chain of MMP9 (P14780 107-707 limits assumed): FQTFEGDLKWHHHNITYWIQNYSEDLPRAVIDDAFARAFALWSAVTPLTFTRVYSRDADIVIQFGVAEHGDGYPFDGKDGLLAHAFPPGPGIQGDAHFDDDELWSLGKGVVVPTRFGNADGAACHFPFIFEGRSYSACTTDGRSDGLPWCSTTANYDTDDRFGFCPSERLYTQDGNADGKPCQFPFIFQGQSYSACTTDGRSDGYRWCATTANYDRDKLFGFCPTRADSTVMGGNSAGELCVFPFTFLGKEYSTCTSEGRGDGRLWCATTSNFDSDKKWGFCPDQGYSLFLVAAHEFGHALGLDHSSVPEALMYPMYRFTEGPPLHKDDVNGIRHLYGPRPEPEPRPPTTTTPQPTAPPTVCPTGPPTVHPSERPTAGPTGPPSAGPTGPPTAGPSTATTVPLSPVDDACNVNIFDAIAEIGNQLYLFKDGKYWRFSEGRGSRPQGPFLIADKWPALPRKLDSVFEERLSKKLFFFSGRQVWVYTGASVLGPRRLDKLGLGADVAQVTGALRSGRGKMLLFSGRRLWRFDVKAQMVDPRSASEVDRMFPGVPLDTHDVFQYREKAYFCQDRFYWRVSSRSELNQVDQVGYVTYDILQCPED
Chain of MMP8 (P22894 101-467 limits assumed): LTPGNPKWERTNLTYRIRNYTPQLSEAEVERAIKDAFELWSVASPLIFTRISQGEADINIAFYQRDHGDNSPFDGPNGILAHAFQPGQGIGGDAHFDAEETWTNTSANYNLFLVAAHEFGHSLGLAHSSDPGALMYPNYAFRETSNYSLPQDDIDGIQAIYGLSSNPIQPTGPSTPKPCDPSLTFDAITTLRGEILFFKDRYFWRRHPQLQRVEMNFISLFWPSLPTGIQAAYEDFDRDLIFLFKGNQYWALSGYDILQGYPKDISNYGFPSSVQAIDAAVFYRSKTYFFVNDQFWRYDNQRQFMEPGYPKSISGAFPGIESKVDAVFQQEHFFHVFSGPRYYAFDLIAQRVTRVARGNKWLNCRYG

B1: Variant A2M, bait region SEQ ID NO 25 (other)
chain: SVSGKPQYMVLVPSLLHTETTEKGCVLLSYLNETVTVSASLESVRGNRSLFTDLEAENDVLHCVAFAVPKSSSNEEVMFLTVQVKGPTQEFKKRTTVMVKNEDSLVFVQTDKSIYKPGQTVKFRVVSMDENFHPLNELIPLVYIQDPKGNRIAQWQSFQLEGGLKQFSFPLSSEPFQGSYKVVVQKKSGGRTEHPFTVEEFVLPKFEVQVTVPKIITILEEEMNVSVCGLYTYGKPVPGHVTVSICRKYSDASDCHGEDSQAFCEKFSGQLNSHGCFYQQVKTKVFQLKRKEYEMKLHTEAQIQEEGTVVELTGRQSSEITRTITKLSFVKVDSHFRQGIPFFGQVRLVDGKGVPIPNKVIFIRGNEANYYSNATTDEHGLVQFSINTTNVMGTSLTVRVNYKDRSPCYGYQWVSEEHEEAHHTAYLVFSPSKSFVHLEPMSHELPCGHTQTVQAHYILNGGTLLGLKKLSFYYLIMAKGGIVRTGTHGLLVKQEDMKGHFSISIPVKSDIAPVARLLIYAVLPTGDVIGDSAKYDVENCLANKVDLSFSPSQSLPASHAHLRVTAAPQSVCALRAVDQSVLLMKPDAELSASSVYNLLPEKDLTGFPGPLNDQDDEDCINRHNVYINGITYTPVSSTNEKDMYSFLEDMGLKAFTNSKIRKPKMCPQLEHGPEGEGEGEGIPENFYGVSEDLYTASELEGRGSVEEPHTKLRKYFPETWIWDLVVVNSAGVAEVGVTVPDTITEWKAGAFCLSEDAGLGISSTASLRAFQPFFVELTMPYSVIRGEAFTLKATVLNYLPKCIRVSVQLEASPAFLAVPVEKEQAPHCICANGRQTVSWAVTPKSLGNVNFTVSAEALESQELCGTEVPSVPEHGRKDTVIKPLLVEPEGLEKETTFNSLLCPSGGEVSEELSLKLPPNVVEESARASVSVLGDILGSAMQNTQNLLQMPYGCGEQNMVLFAPNIYVLDYLNETQQLTPEIKSKAIGYLNTGYQRQLNYKHYDGSYSTFGERYGRNQGNTWLTAFVLKTFAQARAYIFIDEAHITQALIWLSQRQKDNGCFRSSGSLLNNAIKGGVEDEVTLSAYITIALLEIPLTVTHPVVRNALFCLESAWKTAQEGDHGSHVYTKALLAYAFALAGNQDKRKEVLKSLNEEAVKKDNSVHWERPQKPKAPVGHFYEPQAPSAEVEMTSYVLLAYLTAQPAPTSEDLTSATNIVKWITKQQNAQGGFSSTQDTVVALHALSKYGAATFTRTGKAAQVTIQSSGTFSSKFQVDNNNRLLLQQVSLPELPGEYSMKVTGEGCVYLQTSLKYNILPEKEEFPFALGVQTLPQTCDEPKAHTSFQISLSVSYTGSRSASNMAIVDVKMVSGFIPLKPTVKMLERSNHVSRTEVSSNHVLIYLDKVSNQTLSLFFTVLQDVPVRDLKPAIVKVYDYYETDEFAIAEYNAPCSKDLGNADYKDDDDKGASHHHHHH
With B1 as the binder, how does the “Protease Inhibition (% of WT)” value (Elastase) read?
Its value is 100 % of WT.

What about the “Protease Inhibition (% of WT)” value (MMP3) of the same binder?
The value was 86 % of WT.

What about the “Protease Inhibition (% of WT)” value (MMP8) of the same binder?
The value was 36 % of WT.

What about the “Protease Inhibition (% of WT)” value (MMP9) of the same binder?
Its value is 25 % of WT.

What about the “Protease Inhibition (% of WT)” value (ADAMTS5) of the same binder?
Its value is 376 % of WT.

And the “Protease Inhibition (% of WT)” value (MMP1)?
The value was 101 % of WT.

What about the “Protease Inhibition (% of WT)” value (ADAMTS4) of the same binder?
Its value is 144 % of WT.

And the “Protease Inhibition (% of WT)” value (MMP2)?
The value was 43 % of WT.

What about the “Protease Inhibition (% of WT)” value (MMP7) of the same binder?
The value was 140 % of WT.

And the “Protease Inhibition (% of WT)” value (Cathepsin G)?
The value was 117 % of WT.

And the “Protease Inhibition (% of WT)” value (MMP13)?
The value was 138 % of WT.
